Source: the supplement of paper PMC10126150
± gives the standard deviation of the averaged measurements.

Tested on: ATP
Experiment: switch fluorescence ratio, 500 uM ATP over buffer (Cy3 cluster intensity, sum of 5 cycles each) (fold (ratio)); higher = stronger signal-on switching upon ATP binding; sequences stand for … in TCGTCGGCAGCGTCAGATGTGTATAAGAGACAGTTTTTTTTTTTTTTTTTTTTTTTTT…TC
Details: aptamer strand: ATP DNA aptamer (quencher-CACCTGGGGGAGTATTGCGGAGGAAGG + anchor), 100 nM annealed; ATP concentration: 500 uM
In short: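 Between each of five buffer/ATP cycles, the flow-cell was stripped with NaOH and re-annealed. Each cycle imaged Cy3-labelled switching-strand clusters, annealed to 100 nM quencher-labelled ATP aptamer on a modified Illumina MiSeq flow-cell, first in selection buffer and then after 15 min with 500 uM ATP at 22 °C. The fluorescence ratio is summed target-cycle over summed buffer-cycle Cy3 intensity per cluster, averaged per switch-domain sequence, with clusters outside 100-1000 RFU excluded.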
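Further: ATP exposure 15 min at 22 °C before imaging.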

| Sequence | switch fluorescence ratio |
| --- | --- |
| CAATACTAAC | 1.32 ± 0.037 |
| CAATAGAGGG | 0.991 ± 0.033 |
| CAATAGCGGT | 1.05 ± 0.02 |
| CAATATCTCC | 2.29 ± 0.16 |
| CAATATTACT | 1.01 ± 0.042 |
| CAATATTCTT | 1.02 ± 0.027 |
| CAATATTTTT | 1 ± 0.015 |
| CAATCTTGGA | 1 ± 0.012 |
| CAATGAGTAT | 1.011 ± 0.003 |
| CAATGCGACA | 1.39 ± 0.078 |
| CAATGGGACC | 1.011 ± 0.0013 |
| CAATGGGGGA | 1.007 ± 0.0018 |
| CAATGGGTAC | 0.969 ± 0.024 |
| CAATGTCCCG | 0.9985 ± 0.0041 |
| CAATGTGACG | 1.03 ± 0.052 |
| CAATGTGGAG | 0.992 ± 0.055 |
| CAATGTTTGC | 1.002 ± 0.0083 |
| CAATTATTTT | 1.02 ± 0.027 |
| CAATTCGATA | 1.02 ± 0.025 |
| CAATTCGTTA | 1.01 ± 0.0035 |
| CAATTGCATC | 1.02 ± 0.014 |
| CAATTGGATG | 1 ± 0.073 |
| CAATTGGCGT | 0.967 ± 0.021 |

| Sequence | switch fluorescence ratio |
| --- | --- |
| CAATTGGGTG | 1.06 ± 0.022 |
| CAATTGGTTT | 0.997 ± 0.016 |
| CAATTTCAGC | 0.999 ± 0.025 |
| CAATTTCGGT | 0.996 ± 0.039 |
| CAATTTGGGG | 0.994 ± 0.02 |
| CAATTTTCGG | 0.989 ± 0.022 |
| CACAAGGGCG | 0.94 ± 0.02 |
| CACAAGTTTT | 1.02 ± 0.03 |
| CACACAAAAT | 0.977 ± 0.014 |
| CACACGTTTT | 1.02 ± 0.013 |
| CACAGCTCAC | 1.79 ± 0.065 |
| CACATGTTAT | 1.0197 ± 0.00089 |
| CACATTAACT | 1.094 ± 0.0047 |
| CACATTACAT | 1.28 ± 0.1 |
| CACCATGTTC | 0.989 ± 0.032 |
| CACCCCGCAC | 3.46 ± 0.48 |
| CACCTGATGG | 0.997 ± 0.025 |
| CACCTGTTGC | 1.02 ± 0.011 |
| CACCTTAATT | 1.037 ± 0.0075 |
| CACCTTACGT | 1.45 ± 0.079 |
| CACGAAGGTG | 1.16 ± 0.032 |
| CACGACTCGT | 1 ± 0.011 |
| CACGAGAACT | 1.1 ± 0.024 |

| Sequence | switch fluorescence ratio |
| --- | --- |
| CACGAGGGGA | 1.02 ± 0.057 |
| CACGAGTTAG | 1.0257 ± 0.00055 |
| CACGATTTTT | 0.988 ± 0.022 |
| CACGCGGGGA | 1.01 ± 0.041 |
| CACGCTTTTT | 1.15 ± 0.23 |
| CACGGACAGC | 1.41 ± 0.025 |
| CACGGACTGC | 1.42 ± 0.07 |
| CACGGAGGGG | 0.9875 ± 0.0095 |
| CACGGCTCGC | 1.04 ± 0.015 |
| CACGGCTTGG | 0.9744 ± 0.0044 |
| CACGGGATGG | 1.05 ± 0.026 |
| CACGGGGAAG | 1.02 ± 0.047 |
| CACGGGGGA | 0.974 ± 0.025 |
| CACGGGGGGG | 1.02 ± 0.025 |
| CACGGGTATT | 1.013 ± 0.0028 |
| CACGGGTGGC | 1.152 ± 0.011 |
| CACGGGTTCC | 1.03 ± 0.041 |
| CACGGTTGTT | 1.015 ± 0.0074 |
| CACGGTTTGT | 0.985 ± 0.018 |
| CACGTACGGG | 1.59 ± 0.089 |
| CACGTGGGGG | 1.007 ± 0.006 |
| CACGTGTGGT | 0.988 ± 0.036 |
| CACTACGGGA | 1.05 ± 0.012 |

| Sequence | switch fluorescence ratio |
| --- | --- |
| CACTAGACGG | 1.45 ± 0.064 |
| CACTAGAGGA | 1.022 ± 0.0057 |
| CACTAGGCGG | 1.0232 ± 0.00067 |
| CACTGATCCT | 1.032 ± 0.0032 |
| CACTGCCTGC | 1.08 ± 0.036 |
| CACTGGCCGA | 1.035 ± 0.01 |
| CACTGGGGGT | 1.03 ± 0.019 |
| CACTGGGGTT | 0.988 ± 0.017 |
| CACTGTATCG | 1.13 ± 0.063 |
| CACTGTGGGT | 0.9744 ± 0.0046 |
| CACTTTACTT | 1.28 ± 0.072 |
| CACTTTCATG | 1.013 ± 0.0021 |
| CACTTTGGGG | 0.971 ± 0.0062 |
| CAGAACAGCT | 1.029 ± 0.0039 |
| CAGAAGGGGA | 1.09 ± 0.079 |
| CAGAAGTCTC | 1 ± 0.014 |
| CAGAATGGGG | 0.998 ± 0.014 |
| CAGAATTGTG | 1.02 ± 0.012 |
| CAGACGCGGG | 0.99 ± 0.057 |
| CAGACTTCGG | 0.934 ± 0.016 |
| CAGAGATGGG | 0.9997 ± 0.0049 |
| CAGAGATGTT | 1.01 ± 0.032 |
| CAGAGATTTT | 1.005 ± 0.0029 |

| Sequence | switch fluorescence ratio |
| --- | --- |
| CAGAGGCGTG | 0.9831 ± 0.0079 |
| CAGAGGGGTT | 1 ± 0.021 |
| CAGAGTAGGG | 0.969 ± 0.049 |
| CAGAGTCCTC | 1.01 ± 0.027 |
| CAGAGTCTGG | 1.04 ± 0.024 |
| CAGAGTGCTG | 1.06 ± 0.03 |
| CAGATATTGG | 1.02 ± 0.023 |
| CAGATATTTC | 1.02 ± 0.021 |
| CAGATGACAG | 0.997 ± 0.012 |
| CAGATGGTTG | 0.9835 ± 0.0041 |
| CAGATGTGAC | 1.057 ± 0.0061 |
| CAGATTATGT | 1.01 ± 0.055 |
| CAGATTGCTC | 0.982 ± 0.037 |
| CAGATTTCTA | 1.02 ± 0.019 |
| CAGCATGGGT | 1.025 ± 0.0034 |
| CAGCCTTATT | 0.997 ± 0.029 |
| CAGCGATTTA | 1.02 ± 0.053 |
| CAGCGCGTCT | 1.07 ± 0.06 |
| CAGCGGCTGT | 0.966 ± 0.026 |
| CAGCGGGGGC | 1.01 ± 0.016 |
| CAGCGGTAGG | 1.03 ± 0.016 |
| CAGCTGGAGC | 1 ± 0.017 |
| CAGCTTTCGG | 1.03 ± 0.048 |

| Sequence | switch fluorescence ratio |
| --- | --- |
| CAGGAGAGGG | 1.02 ± 0.029 |
| CAGGAGCATT | 3.09 ± 1.5 |
| CAGGAGGGGA | 1.01 ± 0.011 |
| CAGGATAAAT | 0.979 ± 0.06 |
| CAGGATCTTG | 0.974 ± 0.031 |
| CAGGCAGTTT | 1.01 ± 0.016 |
| CAGGCGGAAA | 0.98 ± 0.015 |
| CAGGCGGGGA | 1.004 ± 0.0074 |
| CAGGCGGTTT | 0.969 ± 0.029 |
| CAGGCTAAGA | 1.026 ± 0.0047 |
| CAGGCTTTGC | 0.992 ± 0.076 |
| CAGGGAGACG | 1.12 ± 0.047 |
| CAGGGAGCAG | 1.05 ± 0.03 |
| CAGGGAGCCT | 0.988 ± 0.05 |
| CAGGGAGGGG | 0.995 ± 0.032 |
| CAGGGAGGGT | 0.983 ± 0.014 |
| CAGGGCAATG | 1.2 ± 0.045 |
| CAGGGCAGCC | 1.01 ± 0.03 |
| CAGGGCCATG | 1.009 ± 0.0014 |
| CAGGGCTGGT | 0.976 ± 0.015 |
| CAGGGGAGGG | 1.06 ± 0.09 |
| CAGGGGGCCA | 0.984 ± 0.033 |
| CAGGGGGGAG | 0.992 ± 0.035 |

| Sequence | switch fluorescence ratio |
| --- | --- |
| CAGGGGGGGC | 1.01 ± 0.026 |
| CAGGGGGTAC | 1.09 ± 0.086 |
| CAGGGGGTCC | 1.01 ± 0.022 |
| CAGGGGGTGC | 1.03 ± 0.072 |
| CAGGGGGTGT | 1.03 ± 0.032 |
| CAGGGGTGAT | 1.18 ± 0.19 |
| CAGGGGTGGC | 0.9529 ± 0.0021 |
| CAGGGGTTGG | 1.02 ± 0.028 |
| CAGGGGTTGT | 1.21 ± 0.31 |
| CAGGGGTTTA | 1.03 ± 0.034 |
| CAGGGTAACT | 1.04 ± 0.066 |
| CAGGGTACGA | 1.05 ± 0.012 |
| CAGGGTGAGA | 1.04 ± 0.016 |
| CAGGGTGGGT | 1.02 ± 0.05 |
| CAGGGTTAGG | 1.01 ± 0.026 |
| CAGGTAAAGG | 1.01 ± 0.022 |
| CAGGTAAGGA | 0.969 ± 0.01 |
| CAGGTAGGAG | 0.985 ± 0.017 |
| CAGGTATGTT | 1 ± 0.016 |
